Six molecules from EP4545559A2 (INSTITUTO BUTANTAN, dated 2025) can be followed below.

Like-named read-outs stand apart in the source and are kept apart here.

The target in assay [1] is T1, RBD Gamma (K417T/E484K/N501Y) (SARS-CoV-2, UniProt P0DTC2 319-541).
T1 construct: domain: RBD
The assay can be described thus: SPR, antigen on CM5 sensor.

The target of assay [2] is T2, RBD Delta (L452R/T478K) (SARS-CoV-2, UniProt P0DTC2 319-541).
T2 construct: domain: RBD
Description: SPR, antigen on CM5 sensor.

In assay [3] the target is T3, RBD Omicron (G339D, S371L, S373P, S375F, K417N, N440K, G446S, S477N, T478K, E484A, Q493R, G496S, Q49 (SARS-CoV-2, UniProt P0DTC2 319-541)).
T3 construct: range 319-541
Description: SPR, antigen on CM5 sensor.

Assay [4] concerns the target T1, RBD Gamma (K417T/E484K/N501Y). The assay can be described thus: SPR kinetics; * dissociation in 360sec.
Assay [5] concerns the target T3, RBD Omicron (G339D, S371L, S373P, …). Description: SPR kinetics; * dissociation in 360sec.
The target in assay [6] is T2, RBD Delta (L452R/T478K). Description: SPR kinetics; *** did not dissociate until 36000sec.
The target in assay [7] is T2, RBD Delta (L452R/T478K). Description: SPR, antigen on CM5 sensor. This is another data set of the same source.
In assay [8] the target is T2, RBD Delta (L452R/T478K). The assay can be described thus: SPR kinetics; * dissociation in 360sec.
The target in assay [9] is T1, RBD Gamma (K417T/E484K/N501Y). Description: SPR, antigen on CM5 sensor. This is another data set of the same source.
Assay [10] has as its target T2, RBD Delta (L452R/T478K). Description: SPR, antigen on CM5 sensor. This is another data set of the same source.
In assay [11] the target is T3, RBD Omicron (G339D, S371L, S373P, …). Description: SPR, antigen on CM5 sensor. This is another data set of the same source.
The target of assay [12] is T1, RBD Gamma (K417T/E484K/N501Y). The assay can be described thus: SPR kinetics; ** dissociation in 36000sec.
Assay [13] concerns the target T2, RBD Delta (L452R/T478K). The assay can be described thus: SPR kinetics; *** did not dissociate until 36000sec. This is another data set of the same source.
Assay [14] concerns the target T3, RBD Omicron (G339D, S371L, S373P, …). The description is as above.
The target in assay [15] is T1, RBD Gamma (K417T/E484K/N501Y). Description: SPR, antigen on CM5 sensor. This is another data set of the same source.
Assay [16] deals with T2, RBD Delta (L452R/T478K). Description: SPR, antigen on CM5 sensor. This is another data set of the same source.
The target in assay [17] is T3, RBD Omicron (G339D, S371L, S373P, …). The assay can be described thus: SPR, antigen on CM5 sensor. The source holds these as a separate data set.
Assay [18] deals with T1, RBD Gamma (K417T/E484K/N501Y). Description: SPR kinetics; *** did not dissociate until 36000sec.
Assay [19] addresses T2, RBD Delta (L452R/T478K). The assay is described as above. The source holds these as a separate data set.
For assay [20], the target named is T3, RBD Omicron (G339D, S371L, S373P, …). The description is as above. The source holds these as a separate data set.
In assay [21] the target is T1, RBD Gamma (K417T/E484K/N501Y). The assay can be described thus: SPR, antigen on CM5 sensor. This is another data set of the same source.
Assay [22] has as its target T2, RBD Delta (L452R/T478K). The assay can be described thus: SPR, antigen on CM5 sensor. This is another data set of the same source.
Assay [23] has as its target T3, RBD Omicron (G339D, S371L, S373P, …). The assay can be described thus: SPR, antigen on CM5 sensor. The source holds these as a separate data set.
The target in assay [24] is T1, RBD Gamma (K417T/E484K/N501Y). The assay can be described thus: SPR kinetics; * dissociation in 360sec. The source holds these as a separate data set.
In assay [25] the target is T2, RBD Delta (L452R/T478K). Description: SPR kinetics; * dissociation in 360sec. The source holds these as a separate data set.
Assay [26] deals with T3, RBD Omicron (G339D, S371L, S373P, …). The assay can be described thus: SPR kinetics; * dissociation in 360sec. The source holds these as a separate data set.
In assay [27] the target is T1, RBD Gamma (K417T/E484K/N501Y). The assay can be described thus: SPR, antigen on CM5 sensor. The source holds these as a separate data set.
Assay [28] concerns the target T2, RBD Delta (L452R/T478K). The assay can be described thus: SPR, antigen on CM5 sensor. The source holds these as a separate data set.
For assay [29], the target named is T3, RBD Omicron (G339D, S371L, S373P, …). Description: SPR, antigen on CM5 sensor. The source holds these as a separate data set.
For assay [30] the target is unchanged. Description: SPR kinetics; * dissociation in 360sec. The source holds these as a separate data set.
In assay [31] the target is T1, RBD Gamma (K417T/E484K/N501Y). Description: SPR kinetics; *** did not dissociate until 36000sec. The source holds these as a separate data set.
In assay [32] the target is T2, RBD Delta (L452R/T478K). The description is as above. This is another data set of the same source.

B1: Monoclonal antibody S.9.1.H5 (antibody, V domains shown)
VH: QVQLVESGGGVVQPGRSLRLSCAASGFTFSRYGMHWVRQAPGKGLEWVALISYDGTNKYYADSVKGRFTISRDNSKSTQYLQMNSLRAEDTAVYFCAKESFGYASGSYYFDYWGQGTLVTVSS
VL: DIQMTQSPSSLSASVGDRITITCQASQDISNYLNWYQQKPGKAPKLMIYDASNLETGVPSRFSGSGAGTDFTFTISSLQPEDFARYYCQQYGNLPLTFGGGTKVEIK
notes: also called mAb S.9.1.H5
In the case of B1, the RU in assay [1] was found to be 376 RU; with RBD Delta (L452R/T478K) [2], 942 RU; in assay [3], 175 RU. The Kd in assay [4] was 1110 pM; in [5], 1830 pM; with RBD Delta (L452R/T478K) [6] it was roughly 197 pM.

B2: Monoclonal antibody S.11.1.H1 (antibody, V domains shown)
VH: QVQLVESGGGVVQPGRSLTLSCSASGFPFSTYVMHWVRQAPGKGLEWVAVISSDGSNENYADSVKGRFTVSRDNFGSTLFLQMSTLRPDDTAVYYCARTAGRGYADRGRLDTWGQGTLVTVSS
VL: not shown
notes: also called mAb S.11.1.H1
B2 registered an RU in the assay with RBD Delta (L452R/T478K) [7] of 913 RU. The Kd in the assay with RBD Delta (L452R/T478K) [8] stood at 548 pM.

B3: Monoclonal antibody S.9.4.A9 (antibody, V domains shown)
VH: QVQLVQSGAEVKKPGASVKVSCKASGYTFISYGISWVRQAPGQELEWMGWISAYNGNTNYAQKLQGRVTMTRDTSTTTAYMELRSLRSDDTAVYYCARVLGGLWFGEPKARHSDYWGQGTLVTVSS
VL: IQMTQSPSSLSASVGDRVTITCRASQGINNYLAWFQQKPGKAPKSLIYAASSLHSGVPSRFSGSGSGTDFTLTISSLQPEDFATYYCQQYNTYPITFGQGTRLEIK
notes: also called mAb S.9.4.A9
For the molecule B3, the RU was 3 RU in assay [9], 4 RU in the assay with RBD Delta (L452R/T478K) [10] and 1 RU in assay [11]. The values for the Kd (in assay [12]; with RBD Delta (L452R/T478K) [13]; in [14]) were 254 pM, roughly 31.6 pM and roughly 79600 pM, respectively.

B4: Monoclonal antibody S.9.2.B8 (antibody, V domains shown)
VH: EVQLVETGGGLIQPGGSLRLSCAASGLIVSSNYMTWVRQAPGKGLEWVSVLYSGGTTYYADSVKGRVTISRDNSKNTLYLQVNSLTVADTAVYYCARDLADRGGMDVWGQGTTVTVSS
VL: SYELTQPPSVSVAPGQTARITCGGNNIGSQSVHWYQQKPGQAPVLVVYDDSDRPSGIPERFSGSKSGNMATLTISRVEAGDEADYYCQVWDSSSDHVVFGGGTKLTVL
notes: also called mAb S.9.2.B8
As for B4, the RU in [15] is 74 RU; with RBD Delta (L452R/T478K) [16] it was 163 RU; in [17], 22 RU. For the same molecule, the values for the Kd (in assay [18]; with RBD Delta (L452R/T478K) [19]; in assay [20]) were roughly 1170 pM, roughly 0.836 pM and roughly 1770 pM, respectively.

B5: Monoclonal antibody S.11.1.F4 (antibody, V domains shown)
VH: QVQLVQSGAEVKKPGSSVRVSCKASAGTFSSYAIRWVRQAPGQGLEWMGTIIPIFGTTNYAQKFQGRVSITADESTNTAYMELSSLRSEDTAVYYCARDLETSPLYGLDVWGQGTTVTVSS
VL: DIQMTQSPSSLSASVGDRVTITCRASQTISRYLNWYQQKPGKPPKLLIFAASTLHSGVPSRFSGSGSGTEFTLTITSLHPDDFSTYYCQQTYSSPHTFGQGTKLEIK
notes: also called S.11.1.F4 mAb
In the case of B5, the figures for the RU (in [21]; in the assay with RBD Delta (L452R/T478K) [22]; in [23]) were 218 RU, 743 RU and 153 RU, respectively. Further, the values for the Kd (in [24]; with RBD Delta (L452R/T478K) [25]; in assay [26]) were 1210 pM, 1890 pM and 584 pM, respectively.

B6: Monoclonal antibody S.9.1.C9 (antibody, V domains shown)
VH: QVQLVESGGGVVQPGRSLGLSCAVSGFTFSNYGMDWVRQAPGKGLEWVAVTSYDGSNKYYADSVKGRFTISRDNSKNTLYLQMNSLRTEDTAVYYCAKHGGGPYCGGGTCYLAYFDYWGQGTLVTVSS
VL: DIQMTQSPSSLSASVRDRVTITCQASQDISKFLNWYQQKPGKAPKLLIYDASNLETGVPSRFSGSGSGTDFTFTISSLQPEDIATYYCQQYDNLPITFGQGTRLEIKR
notes: also called mAb S.9.1.C9
Consider B6, for which the RU in [27] came to 294 RU; with RBD Delta (L452R/T478K) [28], 636 RU; in [29], 137 RU. The Kd in assay [30] is 241 pM; in [31], roughly 362 pM; with RBD Delta (L452R/T478K) [32], roughly 455 pM.
